From PMC4713147

Tested on: H-NS (Escherichia coli)
Test: EMSA
Settings: apparent Kd; 200 pM DNA; EMSA: H-NS 0-500 nM, 200 pM 32P-labelled DNA, 4% polyacrylamide gel run at 4 C; buffer, salt and pH not stated (as in ref 99)

Row | Substance | Kd
1 | GC rich region of pBR322 | 200 nM
2 | bglG DRE (bglB primer pair) | 10 nM
